Assay in all cases: mass photometry
For assay [1], the target named is trastuzumab (Herceptin®), immunoglobulin G (IgG) monoclonal antibody.
Assay [2] concerns the target deglycosylated trastuzumab.
In assay [3] the target is trastuzumab (Herceptin®), immunoglobulin G (IgG) monoclonal antibody. This is another data set of the same source.
The target in assay [4] is deglycosylated trastuzumab. The source holds these as a separate data set.
Assay [5] addresses deglycosylated trastuzumab. The source holds these as a separate data set.
Assay [6] has as its target recombinant human FcRN (His and Avi tagged), neonatal Fc receptor (human) (UniProt P55899).
For assay [7] the target is unchanged. This is another data set of the same source.
Assay [8] has as its target trastuzumab (Herceptin®), immunoglobulin G (IgG) monoclonal antibody. The source holds these as a separate data set.
The target of assay [9] is recombinant human FcRN (His and Avi tagged), neonatal Fc receptor (human) (UniProt P55899). This is another data set of the same source.
The target is the same in assay [10]. The source holds these as a separate data set.
In assay [11] the target is trastuzumab (Herceptin®), immunoglobulin G (IgG) monoclonal antibody. This is another data set of the same source.

Broadly, the pKd is the Kd on a negative log10 scale, so that one unit is a factor of ten. A word on the koff: it is the first-order rate constant of dissociation. Read a high koff as a short-lived complex. Broadly, the kon is the second-order rate constant of association. A low value points to slower complex formation. The term stoichiometry N denotes a count of units in the complex or per binding partner.

pKd: −log10 of the molar value. Where “and” joins values, the source holds several entries; their conditions need not be identical. Equal entries are not always repeated. Where two headings read alike, the source gives them in different places. Where only a bound is given, the exact number is not on record here.

On to “FcγRIa (CD64 human recombinant, His Tag) (from UniProt P12314) (receptor)”, for which the pKd in assay [1] was 10.59; in [2], 8.96; in assay [3], 10.30; in assay [4] it was 9.00; in assay [5], 9.22 and 9.15. The figures for the koff in assay [1] and in assay [2] were 0.00052 s⁻¹ and 0.0068 s⁻¹, respectively. For the same substance, the kon was 1.9e+07 M⁻¹ s⁻¹ in [1] and 6e+06 M⁻¹ s⁻¹ in assay [2]. This substance also registered a percent complex formation in assay [3] of 90%. In assay [4], this substance had a percent bound antibody of 50%.
In the case of “recombinant human FcRN (His and Avi tagged), neonatal Fc receptor (from UniProt P55899)”, the pKd in assay [6] was less than 6.70; in [7] it was 7.36 and 6.77; in assay [9], 7.51; in assay [3] it was less than 6.70; in [10], less than 6.70; in assay [11] it was less than 6.70. Also, the Kd of IgG plus two FcRns (second FcRn) in [8] is 6.6 nM and 3.9 nM. Moreover, the Kd of IgG-FcRn monomer (first FcRn) in [8] was 59 nM and 225 nM. Besides, the stoichiometry N in assay [8] and in assay [9] was 2 each time.

These data come from publication doi:10.1101/2020.01.31.925156.
